Results from IntAct's records for PubMed 17586626.

B1: Multidrug resistance protein MexA (Pseudomonas aeruginosa (strain ATCC 15692 / PAO1 / 1C / PRS 101 / LMG 12228)), P52477 (parent)
chain: MQRTPAMRVLVPALLVAISALSGCGKSEAPPPAQTPEVGIVTLEAQTVTLNTELPGRTNAFRIAEVRPQVNGIILKRLFKEGSDVKAGQQLYQIDPATYEADYQSAQANLASTQEQAQRYKLLVADQAVSKQQYADANAAYLQSKAAVEQARINLRYTKVLSPISGRIGRSAVTEGALVTNGQANAMATVQQLDPIYVDVTQPSTALLRLRRELASGQLERAGDNAAKVSLKLEDGSQYPLEGRLEFSEVSVDEGTGSVTIRAVFPNPNNELLPGMFVHAQLQEGVKQKAILAPQQGVTRDLKGQATALVVNAQNKVELRVIKADRVIGDKWLVTEGLNAGDKIITEGLQFVQPGVEVKTVPAKNVASAQKADAAPAKTDSKG
partner: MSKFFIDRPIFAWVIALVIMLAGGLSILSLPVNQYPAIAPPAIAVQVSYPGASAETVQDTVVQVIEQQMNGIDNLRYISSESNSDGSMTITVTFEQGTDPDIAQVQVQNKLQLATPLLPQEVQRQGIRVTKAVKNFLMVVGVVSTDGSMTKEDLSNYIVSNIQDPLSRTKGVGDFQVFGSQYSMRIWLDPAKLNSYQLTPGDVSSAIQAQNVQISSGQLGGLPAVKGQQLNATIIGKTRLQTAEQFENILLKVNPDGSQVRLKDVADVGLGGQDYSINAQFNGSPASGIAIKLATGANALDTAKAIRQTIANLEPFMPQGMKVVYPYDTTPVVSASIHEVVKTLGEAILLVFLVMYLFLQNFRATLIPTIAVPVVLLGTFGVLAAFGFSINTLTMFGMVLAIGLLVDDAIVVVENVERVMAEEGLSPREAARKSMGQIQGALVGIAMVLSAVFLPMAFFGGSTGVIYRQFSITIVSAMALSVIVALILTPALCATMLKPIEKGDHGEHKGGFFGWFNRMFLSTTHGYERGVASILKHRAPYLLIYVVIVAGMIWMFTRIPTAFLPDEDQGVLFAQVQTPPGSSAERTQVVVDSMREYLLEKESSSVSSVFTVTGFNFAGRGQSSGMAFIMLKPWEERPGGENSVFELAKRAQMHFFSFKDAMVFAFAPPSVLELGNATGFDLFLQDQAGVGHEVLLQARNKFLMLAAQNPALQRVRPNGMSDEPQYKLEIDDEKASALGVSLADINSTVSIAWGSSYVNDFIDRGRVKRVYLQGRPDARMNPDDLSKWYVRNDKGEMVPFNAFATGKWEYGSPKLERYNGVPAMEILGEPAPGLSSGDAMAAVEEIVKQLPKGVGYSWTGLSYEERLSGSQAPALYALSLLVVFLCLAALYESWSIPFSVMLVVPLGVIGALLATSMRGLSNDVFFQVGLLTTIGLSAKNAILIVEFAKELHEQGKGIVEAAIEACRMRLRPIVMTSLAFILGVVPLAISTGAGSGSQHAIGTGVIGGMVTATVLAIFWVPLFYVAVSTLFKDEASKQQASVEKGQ
B2: Multidrug resistance protein MexB (Pseudomonas aeruginosa (strain ATCC 15692 / PAO1 / 1C / PRS 101 / LMG 12228)), P52002 (parent)
chain: B1 partner
partner: B1 chain

Variants of: B1
Details: with mexb_pseae mexB, P52002

| Variant | effect of a mutation on the interaction |
| --- | --- |
| V66M | increasing interaction strength |
| V259F | increasing interaction strength |

Variants of: B2
Details: with mexa_pseae mexA, P52477

| Variant | effect of a mutation on the interaction |
| --- | --- |
| G220S | decreasing interaction strength |
